Measured values: patent publication US20140274782A1, “AFFINITY REAGENTS AND METHODS FOR DETECTION, PURIFICATION, AND PROTEOMIC ANALYSIS OF METHYLATED PROTEINS” (The Board of Trustees of the Leland Stanford Junior …, priority 2013, published 2014)

T1: G9a and GLP (Homo sapiens, UniProt Q96KQ7+Q9H9B1)
T1 sequence (Q96KQ7 2-1210 limits assumed): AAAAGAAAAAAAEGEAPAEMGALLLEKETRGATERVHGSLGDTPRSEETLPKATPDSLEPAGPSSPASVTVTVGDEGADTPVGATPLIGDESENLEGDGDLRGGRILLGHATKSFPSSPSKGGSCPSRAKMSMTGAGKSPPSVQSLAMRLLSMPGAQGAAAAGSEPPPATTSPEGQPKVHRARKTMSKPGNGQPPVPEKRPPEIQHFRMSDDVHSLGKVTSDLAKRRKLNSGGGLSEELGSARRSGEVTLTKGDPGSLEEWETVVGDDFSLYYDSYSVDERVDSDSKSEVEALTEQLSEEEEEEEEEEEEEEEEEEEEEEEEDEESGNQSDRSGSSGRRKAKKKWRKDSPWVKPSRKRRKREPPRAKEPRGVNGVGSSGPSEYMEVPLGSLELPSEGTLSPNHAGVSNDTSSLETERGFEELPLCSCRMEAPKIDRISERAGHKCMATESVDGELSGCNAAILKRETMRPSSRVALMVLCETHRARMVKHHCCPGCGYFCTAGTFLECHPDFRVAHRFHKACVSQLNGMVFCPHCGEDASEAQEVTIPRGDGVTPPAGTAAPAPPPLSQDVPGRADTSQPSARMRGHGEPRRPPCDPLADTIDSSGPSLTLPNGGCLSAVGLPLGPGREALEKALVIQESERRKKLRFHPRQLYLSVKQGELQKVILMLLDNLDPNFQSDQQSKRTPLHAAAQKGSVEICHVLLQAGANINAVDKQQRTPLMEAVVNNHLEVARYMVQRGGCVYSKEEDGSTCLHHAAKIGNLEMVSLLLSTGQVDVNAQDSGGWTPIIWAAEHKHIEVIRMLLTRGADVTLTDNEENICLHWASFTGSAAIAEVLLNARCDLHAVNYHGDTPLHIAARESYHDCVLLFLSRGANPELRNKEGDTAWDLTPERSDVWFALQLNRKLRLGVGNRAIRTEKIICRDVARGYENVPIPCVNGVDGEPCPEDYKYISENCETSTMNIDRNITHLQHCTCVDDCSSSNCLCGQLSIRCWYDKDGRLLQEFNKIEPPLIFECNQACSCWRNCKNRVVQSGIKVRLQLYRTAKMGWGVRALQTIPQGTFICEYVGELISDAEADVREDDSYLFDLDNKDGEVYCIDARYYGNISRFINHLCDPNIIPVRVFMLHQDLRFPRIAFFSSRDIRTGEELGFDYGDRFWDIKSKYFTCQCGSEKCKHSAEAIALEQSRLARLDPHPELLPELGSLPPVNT
T1 sequence (Q9H9B1 2-1298 limits assumed): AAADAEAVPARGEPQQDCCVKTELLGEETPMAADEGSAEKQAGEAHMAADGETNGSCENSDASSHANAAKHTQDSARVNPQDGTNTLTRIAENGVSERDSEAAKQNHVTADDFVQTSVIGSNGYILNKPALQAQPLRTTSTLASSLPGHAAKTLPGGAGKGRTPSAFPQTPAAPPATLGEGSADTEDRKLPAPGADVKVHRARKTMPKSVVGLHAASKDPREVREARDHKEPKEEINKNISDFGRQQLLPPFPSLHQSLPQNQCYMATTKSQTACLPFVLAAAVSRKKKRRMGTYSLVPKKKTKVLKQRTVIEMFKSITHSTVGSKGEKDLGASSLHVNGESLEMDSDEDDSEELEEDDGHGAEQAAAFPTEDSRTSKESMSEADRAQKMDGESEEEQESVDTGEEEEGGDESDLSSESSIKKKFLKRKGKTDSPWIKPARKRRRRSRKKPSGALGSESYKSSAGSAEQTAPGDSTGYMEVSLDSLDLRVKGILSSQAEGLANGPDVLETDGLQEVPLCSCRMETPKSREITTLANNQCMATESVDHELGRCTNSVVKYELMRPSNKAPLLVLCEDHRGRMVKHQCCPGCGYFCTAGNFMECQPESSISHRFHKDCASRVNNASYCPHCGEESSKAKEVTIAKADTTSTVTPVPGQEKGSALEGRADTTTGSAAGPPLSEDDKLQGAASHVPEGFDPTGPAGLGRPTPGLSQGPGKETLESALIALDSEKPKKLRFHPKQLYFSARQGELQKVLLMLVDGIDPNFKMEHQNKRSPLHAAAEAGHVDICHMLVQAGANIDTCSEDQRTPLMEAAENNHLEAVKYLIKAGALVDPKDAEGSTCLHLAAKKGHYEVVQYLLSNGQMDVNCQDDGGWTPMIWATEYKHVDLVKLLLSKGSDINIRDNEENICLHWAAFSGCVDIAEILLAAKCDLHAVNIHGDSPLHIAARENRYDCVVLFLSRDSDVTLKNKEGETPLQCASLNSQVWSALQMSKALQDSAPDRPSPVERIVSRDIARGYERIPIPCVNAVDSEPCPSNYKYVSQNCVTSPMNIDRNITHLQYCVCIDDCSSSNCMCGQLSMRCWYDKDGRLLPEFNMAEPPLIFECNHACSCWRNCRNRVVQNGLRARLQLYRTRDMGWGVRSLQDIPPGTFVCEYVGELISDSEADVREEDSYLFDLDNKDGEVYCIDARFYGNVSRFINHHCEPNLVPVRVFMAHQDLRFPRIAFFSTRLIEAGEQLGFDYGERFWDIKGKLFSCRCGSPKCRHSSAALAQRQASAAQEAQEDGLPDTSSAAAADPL

B1: HNRNPA1 (protein, UniProt P09651 1-372, looked up)
Heterogeneous nuclear …: MSKSESPKEPEQLRKLFIGGLSFETTDESLRSHFEQWGTLTDCVVMRDPNTKRSRGFGFVTYATVEEVDAAMNARPHKVDGRVVEPKRAVSREDSQRPGAHLTVKKIFVGGIKEDTEEHHLRDYFEQYGKIEVIEIMTDRGSGKKRGFAFVTFDDHDSVDKIVIQKYHTVNGHNCEVRKALSKQEMASASSSQRGRSGSGNFGGGRGGGFGGNDNFGRGGNFSGRGGFGGSRGGGGYGGSGDGYNGFGNDGGYGGGGPGYSGGSRGYGSGGQGYGNQGSGYGGSGSYDSYNNGGGGGFGGGSGSNFGGGGSYNDFGNYNNQSSNFGPMKGGNFGGRSSGPYGGGGQYFAKPRNQGGYGGSSSSSSYGSGRRF
B2: CTTN (protein, UniProt Q14247 1-550, looked up)
Src substrate cortactin: MWKASAGHAVSIAQDDAGADDWETDPDFVNDVSEKEQRWGAKTVQGSGHQEHINIHKLRENVFQEHQTLKEKELETGPKASHGYGGKFGVEQDRMDKSAVGHEYQSKLSKHCSQVDSVRGFGGKFGVQMDRVDQSAVGFEYQGKTEKHASQKDYSSGFGGKYGVQADRVDKSAVGFDYQGKTEKHESQRDYSKGFGGKYGIDKDKVDKSAVGFEYQGKTEKHESQKDYVKGFGGKFGVQTDRQDKCALGWDHQEKLQLHESQKDYKTGFGGKFGVQSERQDSAAVGFDYKEKLAKHESQQDYSKGFGGKYGVQKDRMDKNASTFEDVTQVSSAYQKTVPVEAVTSKTSNIRANFENLAKEKEQEDRRKAEAERAQRMAKERQEQEEARRKLEEQARAKTQTPPVSPAPQPTEERLPSSPVYEDAASFKAELSYRGPVSGTEPEPVYSMEAADYREASSQQGLAYATEAVYESAEAPGHYPAEDSTYDEYENDLGITAVALYDYQAAGDDEISFDPDDIITNIEMIDDGWWRGVCKGRYGLFPANYVELRQ
B3: SEPT2 (protein, UniProt Q15019 1-361, looked up)
Septin-2: MSKQQPTQFINPETPGYVGFANLPNQVHRKSVKKGFEFTLMVVGESGLGKSTLINSLFLTDLYPERVIPGAAEKIERTVQIEASTVEIEERGVKLRLTVVDTPGYGDAINCRDCFKTIISYIDEQFERYLHDESGLNRRHIIDNRVHCCFYFISPFGHGLKPLDVAFMKAIHNKVNIVPVIAKADTLTLKERERLKKRILDEIEEHNIKIYHLPDAESDEDEDFKEQTRLLKASIPFSVVGSNQLIEAKGKKVRGRLYPWGVVEVENPEHNDFLKLRTMLITHMQDLQEVTQDLHYENFRSERLKRGGRKVENEDMNKDQILLEKEAELRRMQEMIARMQAQMQMQMQGGDGDGGALGHHV
B4: PCBP2 (protein, UniProt Q15366 1-365, looked up)
Poly(rC)-binding protein 2: MDTGVIEGGLNVTLTIRLLMHGKEVGSIIGKKGESVKKMREESGARINISEGNCPERIITLAGPTNAIFKAFAMIIDKLEEDISSSMTNSTAASRPPVTLRLVVPASQCGSLIGKGGCKIKEIRESTGAQVQVAGDMLPNSTERAITIAGIPQSIIECVKQICVVMLETLSQSPPKGVTIPYRPKPSSSPVIFAGGQDRYSTGSDSASFPHTTPSMCLNPDLEGPPLEAYTIQGQYAIPQPDLTKLHQLAMQQSHFPMTHGNTGFSGIESSSPEVKGYWGLDASAQTTSHELTIPNDLIGCIIGRQGAKINEIRQMSGAQIKIANPVEGSTDRQVTITGSAASISLAQYLINVRLSSETGGMGSS
B5: ILF3 (protein, UniProt Q12906 1-894, looked up)
Interleukin enhancer-binding …: MRPMRIFVNDDRHVMAKHSSVYPTQEELEAVQNMVSHTERALKAVSDWIDEQEKGSSEQAESDNMDVPPEDDSKEGAGEQKTEHMTRTLRGVMRVGLVAKGLLLKGDLDLELVLLCKEKPTTALLDKVADNLAIQLAAVTEDKYEILQSVDDAAIVIKNTKEPPLSLTIHLTSPVVREEMEKVLAGETLSVNDPPDVLDRQKCLAALASLRHAKWFQARANGLKSCVIVIRVLRDLCTRVPTWGPLRGWPLELLCEKSIGTANRPMGAGEALRRVLECLASGIVMPDGSGIYDPCEKEATDAIGHLDRQQREDITQSAQHALRLAAFGQLHKVLGMDPLPSKMPKKPKNENPVDYTVQIPPSTTYAITPMKRPMEEDGEEKSPSKKKKKIQKKEEKAEPPQAMNALMRLNQLKPGLQYKLVSQTGPVHAPIFTMSVEVDGNSFEASGPSKKTAKLHVAVKVLQDMGLPTGAEGRDSSKGEDSAEETEAKPAVVAPAPVVEAVSTPSAAFPSDATAEQGPILTKHGKNPVMELNEKRRGLKYELISETGGSHDKRFVMEVEVDGQKFQGAGSNKKVAKAYAALAALEKLFPDTPLALDANKKKRAPVPVRGGPKFAAKPHNPGFGMGGPMHNEVPPPPNLRGRGRGGSIRGRGRGRGFGGANHGGYMNAGAGYGSYGYGGNSATAGYSQFYSNGGHSGNASGGGGGGGGGSSGYGSYYQGDNYNSPVPPKHAGKKQPHGGQQKPSYGSGYQSHQGQQQSYNQSPYSNYGPPQGKQKGYNHGQGSYSYSNSYNSPGGGGGSDYNYESKFNYSGSGGRSGGNSYGSGGASYNPGSHGGYGGGSGGGSSYQGKQGGYSQSNYNSPGSGQNYSGPPSSYQSSQGGYGRNADHSMNYQYR

target: T1, G9a and GLP; assay: Triple SILAC pull-down after UNC0638 treatment of 293T cells, DMSO/UNC0638 ratio of protein captured by 3×MBT; assay type: cell-based; set-up: cells were treated for 24 hours with UNC0638 at 2.5 μM or DMSO vehicle control; endogenous in cells; host or cells: HEK 293T; details: SILAC ratio DMSO/UNC0638 of protein pulled down with 3xMBT; UNC0638 in heavy SILAC media;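 further: mass spectrometry (Q-Exactive) SILAC quantitation, DMSO/UNC0638 ratio computed after subtracting 3×MBTD355N mutant pull-down background, only proteins with at least twofold 3×MBT over mutant signal considered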

Question: Which “Relative to UNC0638 UNC Heavy” value does the source give for B1 here?
Answer: 0.09 log base 2

Question: B2 was tested. Which “Relative to UNC0638 UNC Heavy” value did it give?
Answer: 0.26 log base 2

Question: For B3, which “Relative to UNC0638 UNC Heavy” value is on record?
Answer: 0.21 log base 2

Question: B4 was tested. Which “Relative to UNC0638 UNC Heavy” value did it give?
Answer: 0.13 log base 2

Question: For B5, which “Relative to UNC0638 UNC Heavy” value is on record?
Answer: 0.11 log base 2

same assay, conditions: SILAC ratio DMSO/UNC0638 of protein pulled down with 3xMBT; UNC0638 in light SILAC media

Question: How did the “Relative to UNC0638 UNC Light” value turn out when B1 was run?
Answer: 0.25 log base 2

Question: With B2 as the molecule, how does the “Relative to UNC0638 UNC Light” value read?
Answer: 0.08 log base 2

Question: For B3, which “Relative to UNC0638 UNC Light” value is on record?
Answer: 0.12 log base 2

Question: B4 was tested. Which “Relative to UNC0638 UNC Light” value did it give?
Answer: 0.21 log base 2

Question: Which “Relative to UNC0638 UNC Light” value does the source give for B5 here?
Answer: 0.23 log base 2

same assay, conditions: average of UNC Light and UNC Heavy experiments

Question: How did the “Relative to UNC0638 Average” value turn out when B1 was run?
Answer: 0.17 log base 2

Question: With B2 as the molecule, how does the “Relative to UNC0638 Average” value read?
Answer: 0.17 log base 2

Question: For B3, which “Relative to UNC0638 Average” value is on record?
Answer: 0.17 log base 2

Question: B4 was tested. Which “Relative to UNC0638 Average” value did it give?
Answer: 0.17 log base 2

Question: For B5, which “Relative to UNC0638 Average” value is on record?
Answer: 0.17 log base 2

tested on: 3×MBT domain of L3MBTL1; assay: Triple SILAC pull-down, 3xMBT/3xMBTD355N ratio (cytoplasmic, nuclear and chromatin fractions of 293T cells); assay type: binding, human; details: SILAC ratio, pull-down 3xMBT vs 3xMBTD355N; experiment with UNC0638 in heavy SILAC media;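 further: proteins quantified with MaxQuant, requiring at least two unique peptides and quantification in both label directions, normalized to the mean of proteins from a digested loading control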

Question: With B1 as the molecule, how does the “3xMBT/D355N UNC Heavy” value read?
Answer: 3.75 log base 2

Question: With B2 as the molecule, how does the “3xMBT/D355N UNC Heavy” value read?
Answer: 1.52 log base 2

Question: How did the “3xMBT/D355N UNC Heavy” value turn out when B3 was run?
Answer: 1.89 log base 2

Question: With B4 as the molecule, how does the “3xMBT/D355N UNC Heavy” value read?
Answer: 1.88 log base 2

Question: With B5 as the molecule, how does the “3xMBT/D355N UNC Heavy” value read?
Answer: 3.53 log base 2

same assay, conditions: SILAC ratio, pull-down 3xMBT vs 3xMBTD355N; experiment with UNC0638 in light SILAC media

Question: Which “3xMBT/D355N UNC Light” value does the source give for B1 here?
Answer: 4.25 log base 2

Question: B2 was tested. Which “3xMBT/D355N UNC Light” value did it give?
Answer: 2.75 log base 2

Question: Which “3xMBT/D355N UNC Light” value does the source give for B3 here?
Answer: 2.49 log base 2

Question: How did the “3xMBT/D355N UNC Light” value turn out when B4 was run?
Answer: 2.41 log base 2

Question: B5 was tested. Which “3xMBT/D355N UNC Light” value did it give?
Answer: 4.28 log base 2
